Data on one molecule can be found in paper PMC5119942 (The Journal of Cell Biology, 2016).

For experiment [1], the target named is T1, Trs130-TAP (recombinant) (yeast, UniProt Q03660 1-1102).
T1 sequence (looked up): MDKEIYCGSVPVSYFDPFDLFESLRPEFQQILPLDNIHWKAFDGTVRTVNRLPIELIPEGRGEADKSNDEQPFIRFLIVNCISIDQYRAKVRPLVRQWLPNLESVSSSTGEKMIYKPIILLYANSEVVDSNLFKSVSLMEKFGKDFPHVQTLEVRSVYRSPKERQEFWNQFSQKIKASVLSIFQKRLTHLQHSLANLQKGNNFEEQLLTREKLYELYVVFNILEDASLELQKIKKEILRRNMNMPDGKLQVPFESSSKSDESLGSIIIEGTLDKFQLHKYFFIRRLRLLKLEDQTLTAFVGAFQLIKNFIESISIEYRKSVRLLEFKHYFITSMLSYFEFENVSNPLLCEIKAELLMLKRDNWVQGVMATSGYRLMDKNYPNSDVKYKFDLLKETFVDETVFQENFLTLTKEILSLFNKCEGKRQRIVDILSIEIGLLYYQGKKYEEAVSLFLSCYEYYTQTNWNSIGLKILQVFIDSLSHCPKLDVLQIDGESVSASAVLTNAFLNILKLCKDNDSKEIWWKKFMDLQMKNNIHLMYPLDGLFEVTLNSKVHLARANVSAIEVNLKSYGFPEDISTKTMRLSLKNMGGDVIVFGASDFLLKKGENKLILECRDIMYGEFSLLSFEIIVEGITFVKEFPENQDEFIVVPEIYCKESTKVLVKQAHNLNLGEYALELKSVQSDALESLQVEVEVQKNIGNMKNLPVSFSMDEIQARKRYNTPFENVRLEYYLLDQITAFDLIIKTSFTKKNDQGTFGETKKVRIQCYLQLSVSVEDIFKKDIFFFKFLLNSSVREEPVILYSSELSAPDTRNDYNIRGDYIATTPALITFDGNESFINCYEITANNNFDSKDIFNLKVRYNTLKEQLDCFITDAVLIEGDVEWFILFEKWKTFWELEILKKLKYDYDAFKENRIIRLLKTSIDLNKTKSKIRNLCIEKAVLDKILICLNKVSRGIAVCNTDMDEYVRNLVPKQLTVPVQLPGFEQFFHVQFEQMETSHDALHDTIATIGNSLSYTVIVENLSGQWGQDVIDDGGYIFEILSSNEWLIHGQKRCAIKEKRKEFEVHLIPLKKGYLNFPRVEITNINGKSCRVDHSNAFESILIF
The experiment in a line: co-purification of co-expressed subunits.

Experiment [2] concerns the target T2, His6-Trs31 (recombinant) (yeast, UniProt Q03337 1-283).
T2 sequence (looked up): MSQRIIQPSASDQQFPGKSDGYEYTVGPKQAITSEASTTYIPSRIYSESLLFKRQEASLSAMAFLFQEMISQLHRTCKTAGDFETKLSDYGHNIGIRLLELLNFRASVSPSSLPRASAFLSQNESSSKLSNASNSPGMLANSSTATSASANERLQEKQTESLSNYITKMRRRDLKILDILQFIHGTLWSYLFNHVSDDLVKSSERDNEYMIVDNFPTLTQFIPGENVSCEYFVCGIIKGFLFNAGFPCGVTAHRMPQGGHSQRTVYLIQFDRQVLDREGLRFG
The experiment in a line: co-purification of co-expressed subunits.

B1: Bet3 (recombinant) (natural protein, yeast, UniProt P36149 1-193, looked up)
chain: MVSTTQSRSLKAMGEEIWKNKTEKINTELFTLTYGSIVAQLCQDYERDFNKVNDHLYSMGYNIGCRLIEDFLARTALPRCENLVKTSEVLSKCAFKIFLNITPNITNWSHNKDTFSLILDENPLADFVELPMDAMKSLWYSNILCGVLKGSLEMVQLDCDVWFVSDILRGDSQTEIKVKLNRILKDEIPIGED
Regarding B1, the “stoichiometry N” value in experiment [1] and in experiment [2] was 2 in each case.
